Experimental findings from PMC1934993 (Nucleic Acids Research, 2007) are described below.

The series deals with the molecule itself. The series is described as follows: crystal structure.

B1: C-terminally truncated Saccharomyces cerevisiae tyrosyl-tRNA synthetase (SceTyrRS, residues 1-364) (enzyme, UniProt P36421 1-364, looked up)
chain: MSSAATVDPNEAFGLITKNLQEVLNPQIIKDVLEVQKRHLKLYWGTAPTGRPHCGYFVPMTKLADFLKAGCEVTVLLADLHAFLDNMKAPLEVVNYRAKYYELTIKAILRSINVPIEKLKFVVGSSYQLTPDYTMDIFRLSNIVSQNDAKRAGADVVKQVANPLLSGLIYPLMQALDEQFLDVDCQFGGVDQRKIFVLAEENLPSLGYKKRAHLMNPMVPGLAQGGKMSASDPNSKIDLLEEPKQVKKKINSAFCSPGNVEENGLLSFVQYVIAPIQELKFGTNHFEFFIDRPEKFGGPITYKSFEEMKLAFKEEKLSPPDLKIGVADAINELLEPIRQEFANNKEFQEASEKGYPVATPQKSK
In the case of B1, the “stoichiometry N” value came out at 2.

A word on the stoichiometry N: it is a count of units in the complex or per binding partner.
